Measured values reported in patent US20050266242A1.

Biological target: seed (assembled NM protein, preformed fibers used to seed fiber elongation in Example 10) (Saccharomyces cerevisiae) (UniProt P05453)
Experiment: seeded fiber elongation, sedimentation and wavelength shift assays, Lineweaver-Burk plot

Chain of seed (assembled NM protein, preformed fibers used to seed fiber elongation in Example 10) (Saccharomyces cerevisiae) (P05453 1-253): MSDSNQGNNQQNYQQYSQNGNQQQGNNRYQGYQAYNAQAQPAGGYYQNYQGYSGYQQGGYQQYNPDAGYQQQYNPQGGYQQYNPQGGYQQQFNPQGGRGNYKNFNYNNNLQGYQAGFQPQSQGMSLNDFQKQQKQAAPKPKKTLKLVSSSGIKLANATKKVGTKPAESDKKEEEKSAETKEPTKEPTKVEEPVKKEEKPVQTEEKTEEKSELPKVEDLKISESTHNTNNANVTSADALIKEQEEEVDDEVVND

Work on “NM^T158C-acrylodan (from UniProt P05453 1-253) (other; other documents disagree on this pair)” yielded a Km of 0.12 µM, a Vmax (maximal rate of conformational conversion) of 0.001 µmol/s and a kconf (rate constant of conformational conversion) of 0.005 s⁻¹. For the same substance, the kconf/Km (conformational conversion efficiency) was 42000 M⁻¹ s⁻¹.
